Experimental data taken from PMC12019173, “Liganded magnetic nanoparticles for magnetic resonance imaging of α-synuclein” (NPJ Parkinson's Disease, 2025).
No end group written: not given here.

Tests used:
Conditions in all cases: both partners purified
[1] = target: T1, recombinant α-synuclein fibrils (human, UniProt P37840 1-140); assay: SPR; short, sonicated α-syn fibrils immobilised on a CM5 chip, BiaCore T200; peptides 300 nM to 10 μM in PBS; steady state analysis, 1:1 binding model; apparent Kd
[2] = target: T1, recombinant α-synuclein fibrils; assay: SPR; α-syn fibrils on the SPR chip, LMNPs flowed over; LMNPs would not dissociate, no Kd calculated
[3] = target: DLB brain-derived α-synuclein fibrils (human (endogenous in brain tissue), UniProt P37840 1-140); assay: negative-stain transmission electron microscopy; brain-derived (sarkosyl-insoluble) fibrils mixed with R8-LMNPs (3 μg/mL), 4 °C overnight, 2% uranyl acetate
[4] = target: MSA brain-derived α-synuclein fibrils (human (endogenous in brain tissue), UniProt P37840 1-140); assay: as above

Binder	Kd [1] [nM]	binding result [2]	binding result [3]	binding result [4]
GAVVWGVTAVKKGRKKRRQRRRPQ (designed binder, two lysine linker; cell penetrating peptide; 24 residues; also called 24-residue peptide) [24mer]	3700	–	–	–
RVGGARVWGVRKKGRKKRRQRRRPQ (designed binder, two-lysine linker; cell penetrating peptide (the methods call it the Tat peptide; detected with an anti-HIV-1 tat antibody); 25 residues; also called R8 peptide; source: synthetic peptide (Genscript or LifeTein)) [R8]	470	–	–	–
GAVVWGVTAVKKGRKKRRQRRRPQ (other, also: covalently coupled to amine-functionalized dextran-coated iron oxide nanoparticle, two lysine linker; cell penetrating peptide; Multivalent; also called 24mer-LMNPs) [24mer-liganded magnetic nanoparticles]	–	binds	–	–
RVGGARVWGVRKKGRKKRRQRRRPQ (other, also: covalently coupled to amine-functionalized dextran-coated iron oxide nanoparticle, two-lysine linker; cell penetrating peptide; Multiple R8 ligands on each nanoparticle (multivalent, avidity); also called R8-LMNPs; R8-LMNP) [R8-liganded magnetic nanoparticles]	–	binds	binds	binds
